In the RNAGym collection of RNA variant scans (doi:10.1101/gr.219683.116):

B1: mRNA-splicing (parent)
chain: AGUUGCUGCUGGGAGCUCCAGCACAGUGAAAUGGACAGAAGGGCAGAGCAA

Variants of: B1
Assay: exon inclusion enrichment index; higher = more inclusion; WT1 exon 5 minigene, HEK293

Going from AGUUCACACAGGGAGCUCCAGCACGUUGAAAUGGACAGAAGGGCAGAGCAA [G5C C6A U7C G8A U10A A25G G26U] to AGUUCACACAGGGAGCUCCAGCACAGUGCAAUGGACAGAAGGGCAGAGCAA [G5C C6A U7C G8A U10A A29C], the “exon inclusion enrichment index” value falls from 0.306 to 0.0911.

Going from AGUUCACACAGGGAGCUCCAGCACAGUGUAAUGGACAGAAGGGCAGAGCAA [G5C C6A U7C G8A U10A A29U] to AGUUCACACAGGGAGCUCCAGCACAGUGGAAUGGACAGAAGGGCAGAGCAA [G5C C6A U7C G8A U10A A29G], the “exon inclusion enrichment index” value rises from 0.035 to 0.202.

First: AGUUCACACAGGGAGCUCCAGCACAGUGAAAUGGACAGAAGGGCCAAGCAA [G5C C6A U7C G8A U10A A45C G46A]
Second: AGUUCACACAGGGAGCUCCAGCACAGUGAAAUGGACAGAAGGGCCUAGCAA [G5C C6A U7C G8A U10A A45C G46U]
The “exon inclusion enrichment index” value of the first is higher: 0.0623 for the first, 0.0352 for the second.

Compared with AGUUCACACAGGGAGCUCCAGCACAGUGAAAUGGACAGAAGGGCCCAGCAA [G5C C6A U7C G8A U10A A45C G46C], AGUUCACACAGGGAGCUCCAGCACAGUGGCAUGGACAGAAGGGCAGAGCAA [G5C C6A U7C G8A U10A A29G A30C] is lower in “exon inclusion enrichment index” value: 0.0869 for the first, 0.0319 for the second.

Compared with AGUUCACACAGGGAGCUCCAGCACAGUGGUAUGGACAGAAGGGCAGAGCAA [G5C C6A U7C G8A U10A A29G A30U], AGUUCACACAGGGAGCUCCAGCACAGUGGGAUGGACAGAAGGGCAGAGCAA [G5C C6A U7C G8A U10A A29G A30G] is higher in “exon inclusion enrichment index” value: 0.0104 for the first, 0.0879 for the second.

First: AGUUCACACAGGGAGCUCCAGCACAGUGAGAUGGACAGAAGGGCAGAGCAA [G5C C6A U7C G8A U10A A30G]
Second: AGUUCACACAGGGAGCUCCAGCACAGUGAUAUGGACAGAAGGGCAGAGCAA [G5C C6A U7C G8A U10A A30U]
The “exon inclusion enrichment index” value of the first is higher: 0.0971 for the first, 0.0402 for the second.

Compared with AGUUCACACAGGGAGCUCCAGCACAGUGACAUGGACAGAAGGGCAGAGCAA [G5C C6A U7C G8A U10A A30C], AGUUCACACAGGGAGCUCCAGCACAGUGAAAUGGACGCAAGGGCAGAGCAA [G5C C6A U7C G8A U10A A37G G38C] is higher in “exon inclusion enrichment index” value: 0.0836 for the first, 0.228 for the second.

First: AGUUCACACAGGGAGCUCCAGCACAGUGAAAUGGACGUAAGGGCAGAGCAA [G5C C6A U7C G8A U10A A37G G38U]
Second: AGUUCACACAGGGAGCUCCAGCACAGUGAAAUGGACGAAAGGGCAGAGCAA [G5C C6A U7C G8A U10A A37G G38A]
The “exon inclusion enrichment index” value of the first is lower: 0.0217 for the first, 0.104 for the second.

Going from AGUUCACACAGGGAGCUCCAGCACUGUGAAAUGGACAGAAGGGCAGAGCAA [G5C C6A U7C G8A U10A A25U] to AGUUCACACAGGGAGCUCCAGCACCGUGAAAUGGACAGAAGGGCAGAGCAA [G5C C6A U7C G8A U10A A25C], the “exon inclusion enrichment index” value rises from 0.205 to 0.77.

First: AGUUCACACAGGGAGCUCCAGCACGGUGAAAUGGACAGAAGGGCAGAGCAA [G5C C6A U7C G8A U10A A25G]
Second: AGUUCACACAGGGAGCUCCAGCACAGUGAAAUGGUUAGAAGGGCAGAGCAA [G5C C6A U7C G8A U10A A35U C36U]
The “exon inclusion enrichment index” value of the first is higher: 0.601 for the first, 0.00092 for the second.

First: AGUUCACACAGGGAGCUCCAGCACAGUGAAAUGGUAAGAAGGGCAGAGCAA [G5C C6A U7C G8A U10A A35U C36A]
Second: AGUUCACACAGGGAGCUCCAGCACAGUGAAAUGGUGAGAAGGGCAGAGCAA [G5C C6A U7C G8A U10A A35U C36G]
The “exon inclusion enrichment index” value of the first is lower: 0.00105 for the first, 0.00777 for the second.

Compared with AGUUCACACAGGGAGCUCCAGCUUAGUGAAAUGGACAGAAGGGCAGAGCAA [G5C C6A U7C G8A U10A A23U C24U], AGUUCACACAGGGAGCUCCAGCUGAGUGAAAUGGACAGAAGGGCAGAGCAA [G5C C6A U7C G8A U10A A23U C24G] is higher in “exon inclusion enrichment index” value: 0.00309 for the first, 0.159 for the second.

Compared with AGUUCACACAGGGAGCUCCAGCACAGUGACGUGGACAGAAGGGCAGAGCAA [G5C C6A U7C G8A U10A A30C A31G], AGUUCACACAGGGAGCUCCAGCACAGUGACCUGGACAGAAGGGCAGAGCAA [G5C C6A U7C G8A U10A A30C A31C] is lower in “exon inclusion enrichment index” value: 0.372 for the first, 0.314 for the second.

Compared with AGUUCACACAGGGAGCUCCAGCACAGUGACUUGGACAGAAGGGCAGAGCAA [G5C C6A U7C G8A U10A A30C A31U], AGUUCACACAGGGAGCUCCAGCACAGUGAAAUGGACAGAUAGGCAGAGCAA [G5C C6A U7C G8A U10A A40U G41A] is lower in “exon inclusion enrichment index” value: 0.168 for the first, 0.00421 for the second.

First: AGUUCACACAGGGAGCUCCAGCACAGUGAAAUGGACAGAUCGGCAGAGCAA [G5C C6A U7C G8A U10A A40U G41C]
Second: AGUUCACACAGGGAGCUCCAGCACAGUGAAAUGGACAGAUUGGCAGAGCAA [G5C C6A U7C G8A U10A A40U G41U]
The “exon inclusion enrichment index” value of the first is higher: 0.451 for the first, 0.0362 for the second.

Compared with AGUUCACACAGGGAGCUCCAGCACAGUGAACCGGACAGAAGGGCAGAGCAA [G5C C6A U7C G8A U10A A31C U32C], AGUUCACACAGGGAGCUCCAGCACAGUGAACAGGACAGAAGGGCAGAGCAA [G5C C6A U7C G8A U10A A31C U32A] is lower in “exon inclusion enrichment index” value: 0.385 for the first, 0.0301 for the second.

Compared with AGUUCACACAGGGAGCUCCAGCACAGUGAACGGGACAGAAGGGCAGAGCAA [G5C C6A U7C G8A U10A A31C U32G], AGUUCACACAGGGAGCUCCAGCACAGUGAAAUGGACAGACAGGCAGAGCAA [G5C C6A U7C G8A U10A A40C G41A] is lower in “exon inclusion enrichment index” value: 0.221 for the first, 0.0281 for the second.

Going from AGUUCACACAGGGAGCUCCAGCACAGUGAAAUGGACAGACCGGCAGAGCAA [G5C C6A U7C G8A U10A A40C G41C] to AGUUCACACAGGGAGCUCCAGCACAGUGAAAUGGACAGACUGGCAGAGCAA [G5C C6A U7C G8A U10A A40C G41U], the “exon inclusion enrichment index” value falls from 0.71 to 0.0519.

First: AGUUCACACAGGGAGCUCCAGCACAGUGAAGAGGACAGAAGGGCAGAGCAA [G5C C6A U7C G8A U10A A31G U32A]
Second: AGUUCACACAGGGAGCUCCAGCACAGUGAAGGGGACAGAAGGGCAGAGCAA [G5C C6A U7C G8A U10A A31G U32G]
The “exon inclusion enrichment index” value of the first is higher: 0.854 for the first, 0.0429 for the second.

Compared with AGUUCACACAGGGAGCUCCAGCACAGUGAAGCGGACAGAAGGGCAGAGCAA [G5C C6A U7C G8A U10A A31G U32C], AGUUCACACAGGGAGCUCCAGCACAGUGAAAUGGACAGAGCGGCAGAGCAA [G5C C6A U7C G8A U10A A40G G41C] is higher in “exon inclusion enrichment index” value: 0.646 for the first, 0.666 for the second.

Going from AGUUCACACAGGGAGCUCCAGCACAGUGAAAUGGACAGAGAGGCAGAGCAA [G5C C6A U7C G8A U10A A40G G41A] to AGUUCACACAGGGAGCUCCAGCACAGUGAAAUGGACAGAGUGGCAGAGCAA [G5C C6A U7C G8A U10A A40G G41U], the “exon inclusion enrichment index” value rises from 0.0264 to 0.0884.

Compared with AGUUCACACAGGGAGCUCCAGCACAGUGUCAUGGACAGAAGGGCAGAGCAA [G5C C6A U7C G8A U10A A29U A30C], AGUUCACACAGGGAGCUCCAGCACAGUGUGAUGGACAGAAGGGCAGAGCAA [G5C C6A U7C G8A U10A A29U A30G] is higher in “exon inclusion enrichment index” value: 0.0766 for the first, 0.125 for the second.

Going from AGUUCACACAGGGAGCUCCAGCACAGUGUUAUGGACAGAAGGGCAGAGCAA [G5C C6A U7C G8A U10A A29U A30U] to AGUUCACACAGGGAGCUCCAGCACAGUGAAAUGGACAGAGGGGCAGAGCAA [G5C C6A U7C G8A U10A A40G], the “exon inclusion enrichment index” value rises from 0.0185 to 0.0695.

Going from AGUUCACACAGGGAGCUCCAGCACAGUGAAAUGGACAGACGGGCAGAGCAA [G5C C6A U7C G8A U10A A40C] to AGUUCACACAGGGAGCUCCAGCACAGUGAAAUGGACAGAUGGGCAGAGCAA [G5C C6A U7C G8A U10A A40U], the “exon inclusion enrichment index” value falls from 0.355 to 0.0713.

Going from AGUUCACACAGGGAGCUCCAGCACAGUGAAGUGGACAGAAGGGCAGAGCAA [G5C C6A U7C G8A U10A A31G] to AGUUCACACAGGGAGCUCCAGCACAGUGAAUUGGACAGAAGGGCAGAGCAA [G5C C6A U7C G8A U10A A31U], the “exon inclusion enrichment index” value falls from 0.141 to 0.094.

For AGUUCACACAGGGAGCUCCAGCACAGUGAACUGGACAGAAGGGCAGAGCAA [G5C C6A U7C G8A U10A A31C], the “exon inclusion enrichment index” value was 0.155.
